Data taken from patent US7608586B2, “Soluble low-density lipoprotein receptor related protein binds directly to Alzheimer's amyloid-beta peptide” (The University of Rochester, priority 2003, dated 2009).
Entries after “also recorded” stand apart in the source; their conditions may differ.

Assays:
[1] = target: T1, LRP-1 on isolated brain capillaries (Mus musculus, UniProt Q91ZX7); assay: Brain capillary uptake (in vitro clearance of 125I-Aβ by isolated brain capillaries); assay type: cell-based; conditions: for lower affinity (Ki) for LRP-mediated clearance on brain capillaries than Aβ1-40: 125I-Aβ1-40 as test-ligand, unlabeled peptide 40 nM
T1 construct: from tissue; host or cells: isolated brain capillaries of wild-type and RAP null mice
T1 sequence (Q91ZX7 20-4545): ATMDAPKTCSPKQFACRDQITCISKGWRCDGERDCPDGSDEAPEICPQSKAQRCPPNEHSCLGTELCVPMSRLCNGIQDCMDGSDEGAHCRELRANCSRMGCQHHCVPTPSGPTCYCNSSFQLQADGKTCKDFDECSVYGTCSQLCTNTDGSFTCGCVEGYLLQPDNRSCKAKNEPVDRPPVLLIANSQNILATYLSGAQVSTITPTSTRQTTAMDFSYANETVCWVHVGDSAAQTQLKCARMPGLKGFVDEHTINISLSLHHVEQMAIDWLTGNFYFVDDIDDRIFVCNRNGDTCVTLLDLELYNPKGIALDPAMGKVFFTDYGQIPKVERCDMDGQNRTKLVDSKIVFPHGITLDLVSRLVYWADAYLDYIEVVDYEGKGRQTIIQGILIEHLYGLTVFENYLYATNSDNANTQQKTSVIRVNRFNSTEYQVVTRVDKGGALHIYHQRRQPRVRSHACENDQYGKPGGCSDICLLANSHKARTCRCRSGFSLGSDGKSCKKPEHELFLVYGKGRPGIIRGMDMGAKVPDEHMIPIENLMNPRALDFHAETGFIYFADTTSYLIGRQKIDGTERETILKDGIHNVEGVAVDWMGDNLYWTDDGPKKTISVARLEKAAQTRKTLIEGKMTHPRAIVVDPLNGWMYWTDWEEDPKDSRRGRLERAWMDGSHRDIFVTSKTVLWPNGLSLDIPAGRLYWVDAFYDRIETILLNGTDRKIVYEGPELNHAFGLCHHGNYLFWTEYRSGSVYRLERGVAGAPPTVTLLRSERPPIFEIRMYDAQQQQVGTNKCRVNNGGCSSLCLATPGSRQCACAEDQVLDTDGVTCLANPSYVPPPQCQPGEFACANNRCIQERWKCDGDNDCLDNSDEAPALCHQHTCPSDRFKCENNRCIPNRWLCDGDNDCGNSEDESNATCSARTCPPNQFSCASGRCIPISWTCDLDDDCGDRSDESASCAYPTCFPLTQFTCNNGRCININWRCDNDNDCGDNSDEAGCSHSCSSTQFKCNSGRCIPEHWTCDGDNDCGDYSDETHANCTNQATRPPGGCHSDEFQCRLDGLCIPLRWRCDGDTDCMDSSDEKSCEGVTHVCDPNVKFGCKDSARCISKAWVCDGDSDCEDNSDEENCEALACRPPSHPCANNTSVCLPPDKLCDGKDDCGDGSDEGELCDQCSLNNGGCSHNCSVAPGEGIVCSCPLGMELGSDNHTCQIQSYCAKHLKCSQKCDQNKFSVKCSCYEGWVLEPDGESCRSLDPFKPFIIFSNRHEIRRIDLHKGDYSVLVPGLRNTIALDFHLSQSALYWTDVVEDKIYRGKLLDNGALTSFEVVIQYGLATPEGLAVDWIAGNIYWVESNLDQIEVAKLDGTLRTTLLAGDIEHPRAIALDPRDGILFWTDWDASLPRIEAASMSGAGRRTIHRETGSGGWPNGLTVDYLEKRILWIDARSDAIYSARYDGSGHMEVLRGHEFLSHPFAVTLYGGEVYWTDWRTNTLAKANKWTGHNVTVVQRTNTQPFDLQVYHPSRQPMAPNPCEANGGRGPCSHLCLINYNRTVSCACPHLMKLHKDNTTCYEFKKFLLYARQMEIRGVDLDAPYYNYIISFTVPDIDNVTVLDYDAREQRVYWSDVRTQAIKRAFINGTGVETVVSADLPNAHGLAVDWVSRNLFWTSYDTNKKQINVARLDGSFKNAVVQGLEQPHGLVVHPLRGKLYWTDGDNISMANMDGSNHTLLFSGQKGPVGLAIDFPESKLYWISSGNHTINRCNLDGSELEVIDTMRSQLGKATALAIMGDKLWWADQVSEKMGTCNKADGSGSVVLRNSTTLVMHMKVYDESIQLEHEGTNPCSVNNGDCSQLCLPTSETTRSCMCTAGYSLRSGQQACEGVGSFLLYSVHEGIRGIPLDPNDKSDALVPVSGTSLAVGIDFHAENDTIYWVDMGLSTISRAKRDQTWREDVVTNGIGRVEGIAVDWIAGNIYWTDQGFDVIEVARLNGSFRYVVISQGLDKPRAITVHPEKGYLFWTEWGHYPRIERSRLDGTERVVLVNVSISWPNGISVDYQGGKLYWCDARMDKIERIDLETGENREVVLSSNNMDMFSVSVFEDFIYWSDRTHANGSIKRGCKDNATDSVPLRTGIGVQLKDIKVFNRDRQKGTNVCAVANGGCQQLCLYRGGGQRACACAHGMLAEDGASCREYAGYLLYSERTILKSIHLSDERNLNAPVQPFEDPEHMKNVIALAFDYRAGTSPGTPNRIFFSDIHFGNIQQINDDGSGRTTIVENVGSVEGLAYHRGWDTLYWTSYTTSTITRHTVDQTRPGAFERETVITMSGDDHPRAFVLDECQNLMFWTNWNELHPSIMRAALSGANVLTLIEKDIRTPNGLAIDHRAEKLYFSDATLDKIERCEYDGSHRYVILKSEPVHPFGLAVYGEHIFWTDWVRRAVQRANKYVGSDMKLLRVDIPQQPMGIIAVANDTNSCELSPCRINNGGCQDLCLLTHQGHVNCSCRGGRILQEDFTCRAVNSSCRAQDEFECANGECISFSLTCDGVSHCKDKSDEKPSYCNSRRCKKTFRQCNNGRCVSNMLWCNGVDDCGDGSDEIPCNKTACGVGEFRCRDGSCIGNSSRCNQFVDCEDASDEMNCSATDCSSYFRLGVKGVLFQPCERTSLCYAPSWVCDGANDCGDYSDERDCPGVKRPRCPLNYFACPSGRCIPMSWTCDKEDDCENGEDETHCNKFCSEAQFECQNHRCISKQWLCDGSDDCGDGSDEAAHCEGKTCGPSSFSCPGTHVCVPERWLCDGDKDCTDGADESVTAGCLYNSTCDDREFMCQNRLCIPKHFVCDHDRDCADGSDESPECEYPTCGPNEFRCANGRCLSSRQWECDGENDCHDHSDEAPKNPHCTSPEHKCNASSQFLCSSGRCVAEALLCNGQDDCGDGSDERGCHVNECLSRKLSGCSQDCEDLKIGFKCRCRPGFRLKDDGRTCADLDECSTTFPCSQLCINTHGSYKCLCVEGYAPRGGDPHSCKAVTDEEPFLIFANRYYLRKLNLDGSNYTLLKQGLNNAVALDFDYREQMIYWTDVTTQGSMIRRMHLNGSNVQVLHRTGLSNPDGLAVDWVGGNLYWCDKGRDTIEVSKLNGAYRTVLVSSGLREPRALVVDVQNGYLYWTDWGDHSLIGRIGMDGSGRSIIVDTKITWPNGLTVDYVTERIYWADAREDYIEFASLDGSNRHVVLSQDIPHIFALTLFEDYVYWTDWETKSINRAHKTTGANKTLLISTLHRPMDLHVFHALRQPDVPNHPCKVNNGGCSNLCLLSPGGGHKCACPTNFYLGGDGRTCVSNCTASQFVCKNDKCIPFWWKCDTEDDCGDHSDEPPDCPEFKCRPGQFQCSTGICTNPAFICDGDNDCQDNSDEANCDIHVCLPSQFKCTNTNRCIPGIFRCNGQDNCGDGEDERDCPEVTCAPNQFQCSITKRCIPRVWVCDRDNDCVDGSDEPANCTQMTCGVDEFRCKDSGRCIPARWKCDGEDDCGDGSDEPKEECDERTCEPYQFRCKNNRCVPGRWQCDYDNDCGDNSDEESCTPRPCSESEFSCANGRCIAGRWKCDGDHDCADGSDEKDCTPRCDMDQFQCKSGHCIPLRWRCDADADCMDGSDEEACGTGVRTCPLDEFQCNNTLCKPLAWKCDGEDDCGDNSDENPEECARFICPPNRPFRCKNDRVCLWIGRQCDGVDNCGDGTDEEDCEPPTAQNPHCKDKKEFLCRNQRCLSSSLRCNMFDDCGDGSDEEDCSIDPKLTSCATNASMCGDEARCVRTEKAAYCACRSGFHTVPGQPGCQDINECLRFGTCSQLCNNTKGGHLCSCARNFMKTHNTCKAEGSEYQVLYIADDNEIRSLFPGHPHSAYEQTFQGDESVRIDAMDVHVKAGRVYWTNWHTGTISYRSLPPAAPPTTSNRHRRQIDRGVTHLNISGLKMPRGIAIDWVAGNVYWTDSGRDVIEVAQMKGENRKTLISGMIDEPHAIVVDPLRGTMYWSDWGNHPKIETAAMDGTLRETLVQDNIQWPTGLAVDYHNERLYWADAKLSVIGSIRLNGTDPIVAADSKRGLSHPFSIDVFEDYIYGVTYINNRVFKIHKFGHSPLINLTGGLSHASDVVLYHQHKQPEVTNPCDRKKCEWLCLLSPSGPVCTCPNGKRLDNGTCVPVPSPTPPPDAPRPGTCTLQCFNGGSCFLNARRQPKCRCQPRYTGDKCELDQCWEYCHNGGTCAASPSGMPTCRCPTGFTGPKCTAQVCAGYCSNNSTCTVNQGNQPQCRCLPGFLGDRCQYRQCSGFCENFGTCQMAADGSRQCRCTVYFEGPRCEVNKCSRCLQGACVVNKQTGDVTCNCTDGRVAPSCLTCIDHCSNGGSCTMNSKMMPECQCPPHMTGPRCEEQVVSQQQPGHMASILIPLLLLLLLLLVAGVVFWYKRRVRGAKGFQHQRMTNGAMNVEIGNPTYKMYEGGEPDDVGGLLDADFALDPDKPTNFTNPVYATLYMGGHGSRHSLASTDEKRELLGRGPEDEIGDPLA

[2] = target: T2, LRP-1 at the blood-brain barrier (Mus musculus, UniProt Q91ZX7); assay: Brain clearance studies: efflux of 125I-Aβ from brain ISF across the blood-brain barrier; assay type: in vivo; conditions: RAP 1 μM, αLRP-1 60 μg/ml, NI IgG 60 μg/ml, 30 min
T2 construct: from tissue; host or cells: living mouse brain (C57BL/6, RAP null and littermate controls), microinjection into brain ISF
T2 sequence (Q91ZX7 20-4545): as above
Experimental: All studies were performed according to National Institutes of Health guidelines using an approved institutional protocol. […] Briefly a stainless steel guide cannula was implanted stereotaxically into the right caudate-putamen of anesthetized mice (0.5 mg/kg ketamine and 5 mg/kg xylazine I.P.). Coordinates for tip of the cannula were 0.9 mm anterior and 1.9 mm lateral to the bregma and 2.9 mm below the surface of the brain. Animals were allowed to recover after surgery prior to radiotracer studies. […] When the effects of the different unlabeled molecular reagents were tested, they were injected simultaneously with radiolabled ligands. […] Brain and blood were sampled 30 min after tracers injection and prepared for radioactivity analysis by TCA, HPLC and SDS-PAGE/immunoprecipitation analysis to determine the molecular forms of test-tracers. […] For SDS-PAGE analysis, TCA precipitated samples were resuspended in 1% SDS, vortexed and incubated at 55° C. for 5 min, then neutralized, boiled for 3 min, homogenized, and analyzed by electrophoresis in 10% Tris-Tricine gels followed by fluorography.
The percentage of Aβ cleared through the BBB was calculated as [(1−Nb(Aβ)/Ni(Aβ))−(1−Nb(inulin)/Ni(inulin))]×100, using a standard time of 30 min (3). […]

LRP-1 cluster IV = target: T3, LRP-1 cluster IV (Homo sapiens, UniProt Q07954); assay: Surface plasmon resonance binding of Aβ peptides to immobilized LRP-1 cluster IV; conditions: RAP 500 nM
T3 construct: cluster IV (i.e., His3313 to Leu3759 as numbered in Herz et al., 1988); made in house; host or cells: stably transfected baby hamster kidney (BHK) cells
T3 sequence (Q07954 3313-3759): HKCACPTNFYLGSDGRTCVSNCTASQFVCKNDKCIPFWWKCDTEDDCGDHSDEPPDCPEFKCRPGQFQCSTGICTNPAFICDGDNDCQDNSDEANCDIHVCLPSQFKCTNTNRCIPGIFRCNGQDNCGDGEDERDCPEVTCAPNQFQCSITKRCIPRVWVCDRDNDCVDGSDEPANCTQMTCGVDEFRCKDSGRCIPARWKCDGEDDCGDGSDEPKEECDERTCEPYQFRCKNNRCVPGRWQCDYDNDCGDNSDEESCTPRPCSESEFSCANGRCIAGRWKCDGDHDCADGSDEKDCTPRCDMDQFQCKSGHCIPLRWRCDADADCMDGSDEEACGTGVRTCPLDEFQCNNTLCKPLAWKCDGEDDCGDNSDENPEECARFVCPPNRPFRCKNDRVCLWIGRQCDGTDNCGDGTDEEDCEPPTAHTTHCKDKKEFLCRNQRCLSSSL
Experimental: (§1) RAP was used at 500 nM. Ligand solution was replaced with buffer to initiate dissociation. […] Apparent affinity constants Kd(app) were inferred from the ratio koff(app)/kon(app). Data are based on three to five measurements using six to nine different concentrations for each measurement. Data are presented as the mean±SEM. Analysis was performed using BIACORE X biosensor system (Uppsala, Sweden) and BIA evaluation 3.0 software (Biocore, Sweden).

LRP-1 cluster II = target: T4, LRP-1 cluster II (Homo sapiens, UniProt Q07954); assay: Surface plasmon resonance binding of Aβ peptides to immobilized LRP-1 cluster II; conditions: RAP 500 nM
T4 construct: cluster II (i.e., Arg786 to Leu1165 as numbered in Herz et al., 1988); made in house; host or cells: stably transfected baby hamster kidney (BHK) cells
T4 sequence (Q07954 786-1165): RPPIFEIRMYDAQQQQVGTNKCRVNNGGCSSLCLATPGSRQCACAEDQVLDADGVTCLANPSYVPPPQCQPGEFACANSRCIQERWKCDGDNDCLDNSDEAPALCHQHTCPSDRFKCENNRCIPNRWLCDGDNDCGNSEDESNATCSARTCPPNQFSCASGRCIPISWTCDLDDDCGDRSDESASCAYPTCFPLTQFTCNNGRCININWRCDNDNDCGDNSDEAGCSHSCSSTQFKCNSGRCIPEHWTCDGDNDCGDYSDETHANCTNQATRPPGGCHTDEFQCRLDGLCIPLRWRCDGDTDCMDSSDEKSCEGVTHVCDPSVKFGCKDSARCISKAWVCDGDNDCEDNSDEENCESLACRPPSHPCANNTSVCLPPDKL
Experimental: as §1

Row | Substance | lower affinity (Ki) for LRP-mediated clearance on brain capillaries than Aβ1-40 [1] [fold] | effect on Aβ1-40 brain capillary uptake ([1]; Aβ1-40 at 120 nM, RAP 1 μM, αLRP-1 60 μg/ml, NI IgG 60 μg/ml) | effect on 125I-Aβ1-40 uptake before (total) and after mild acid wash ([1]; RAP 500 nM, 37° C.) | effect on Aβ elimination from brain [2] | Binding of Aβ peptides to LRP-1 cluster IV in the presence of RAP (LRP-1 cluster IV) | Binding of Aβ peptides to LRP-1 cluster II in the presence of RAP (LRP-1 cluster II)
1 | Dutch Aβ1-40: Dutch (E22Q) mutant Aβ1-40 peptide | 6 | – | – | – | – | –
2 | Dutch Aβ1-42: Dutch (E22Q) mutant Aβ1-42 peptide | 18 | – | – | – | – | –
3 | RAP: human recombinant receptor-associated protein, an LRP-1 antagonist | – | completely inhibited; also recorded: abolished | blocked | almost completely abolished | abolished | abolished
